Data from paper PMC2950225.

Target: T1, heat shock factor 1 (human (endogenous in HepG2)), Q00613
T1 chain: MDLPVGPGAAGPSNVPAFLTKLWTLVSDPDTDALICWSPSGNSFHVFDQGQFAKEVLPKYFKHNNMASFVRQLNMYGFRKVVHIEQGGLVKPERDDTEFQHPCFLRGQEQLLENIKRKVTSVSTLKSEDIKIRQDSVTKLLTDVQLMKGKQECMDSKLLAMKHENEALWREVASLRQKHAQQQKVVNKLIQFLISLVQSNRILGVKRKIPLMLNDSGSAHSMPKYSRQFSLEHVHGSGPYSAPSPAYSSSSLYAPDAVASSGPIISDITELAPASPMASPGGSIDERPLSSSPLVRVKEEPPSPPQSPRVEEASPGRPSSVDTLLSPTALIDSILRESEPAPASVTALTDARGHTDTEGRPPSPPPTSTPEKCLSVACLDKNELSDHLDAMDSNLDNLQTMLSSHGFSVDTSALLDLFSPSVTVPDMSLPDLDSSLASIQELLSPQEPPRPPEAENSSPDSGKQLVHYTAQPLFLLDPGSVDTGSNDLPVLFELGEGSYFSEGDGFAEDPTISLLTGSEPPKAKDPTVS
Assay: cross-linking
Conditions: remark: other sources report otherwise

stoichiometry N: 3
B1: heat shock factor 1, Q00613 1-529 (natural protein)
chain: T1 chain
